T1: human GALR2 (Galanin Receptor 2) (human, UniProt O43603 1-387)
T1 sequence: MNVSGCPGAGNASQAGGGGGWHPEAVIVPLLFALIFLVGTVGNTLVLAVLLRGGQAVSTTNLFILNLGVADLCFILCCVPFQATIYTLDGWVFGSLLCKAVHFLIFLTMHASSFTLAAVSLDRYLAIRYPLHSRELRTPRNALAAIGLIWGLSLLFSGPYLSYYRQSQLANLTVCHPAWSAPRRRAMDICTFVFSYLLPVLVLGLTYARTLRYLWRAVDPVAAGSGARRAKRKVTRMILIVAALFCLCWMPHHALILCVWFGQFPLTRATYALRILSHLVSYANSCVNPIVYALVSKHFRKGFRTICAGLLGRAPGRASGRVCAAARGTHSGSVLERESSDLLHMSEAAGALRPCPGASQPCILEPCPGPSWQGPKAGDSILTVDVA


target: T1, human GALR2 (Galanin Receptor 2); test: cell-based or functional assay

| Binder | FLIPR EC50 | Aequorin EC50 |
| --- | --- | --- |
| NWAPQAMLYLKGAQG [NWAPQAMLYLKGAQG (SEQ ID NO: 24)] | 10.9 nM | – |
| NWTPQAMLYLAGAQG [NWTPQAMLYLAGAQG (SEQ ID NO: 29)] | 9.6 nM | – |
| NWTPQAMLYLKGAQGRRFISDQS [human pro Neuropeptide Q (36-58) (SEQ ID NO: 16)] | – | 17.6 nM |
| NWTAQAMLYLKGAQG [NWTAQAMLYLKGAQG (SEQ ID NO: 25)] | 3.6 nM | – |
| NWTPQAMLYLKGAQGH [rat Neuropeptide Q (SEQ ID NO: 15)] | – | 5.06 nM |
| NWTPQAMLYLK [NWTPQAMLYLK (SEQ ID NO: 20)] | 1.9 nM | – |
| NWTPQAMLYLKAAQG [NWTPQAMLYLKAAQG (SEQ ID NO: 30)] | 47 nM | – |
| NWTPQAMLYLKGPQG [NWTPQAMLYLKGPQG (SEQ ID NO: 39)] | 0.3 nM | – |
| NWTPPAMLYLKGAQG [NWTPPAMLYLKGAQG (SEQ ID NO: 35)] | 97 nM | – |
| PWTPQAMLYLKGAQG [PWTPQAMLYLKGAQG (SEQ ID NO: 33)] | 0.1 nM | – |
| NWTPQAALYLKGAQG [NWTPQAALYLKGAQG (SEQ ID NO: 27)] | 3.4 nM | – |
| NWTPQAMLYLKPAQG [NWTPQAMLYLKPAQG (SEQ ID NO: 38)] | 20 nM | – |
| NWPPQAMLYLKGAQG [NWPPQAMLYLKGAQG (SEQ ID NO: 34)] | 0.05 nM | – |
| NWTPQAMLYLKGAQG [human Neuropeptide Q-Glycine (SEQ ID NO: 14)] | 4.2 nM | 5.7 nM |
| NWTPQAMLYLPGAQG [NWTPQAMLYLPGAQG (SEQ ID NO: 37)] | 296 nM | – |
| NWTPQAMLYLKGAPG [NWTPQAMLYLKGAPG (SEQ ID NO: 40)] | 0.2 nM | – |
| NWTPQAMAYLKGAQG [NWTPQAMAYLKGAQG (SEQ ID NO: 28)] | 0.8 nM | – |
| NWTPAAMLYLKGAQG [NWTPAAMLYLKGAQG (SEQ ID NO: 26)] | 12.5 nM | – |
| NWTPQAMLYLKGAAG [NWTPQAMLYLKGAAG (SEQ ID NO: 31)] | 0.1 nM | – |
| NWTPQAMLYLKGAQP [NWTPQAMLYLKGAQP (SEQ ID NO: 41)] | 0.3 nM | – |
| WTPQAMLYLKGAQG [WTPQAMLYLKGAQG (SEQ ID NO: 22)] | 4.8 nM | – |
| AWTPQAMLYLKGAQG [AWTPQAMLYLKGAQG (SEQ ID NO: 23)] | 0.7 nM | – |
| NWTPQAMLYLKGA [NWTPQAMLYLKGA (SEQ ID NO: 18)] | 4.3 nM | – |
| SPNPQLLTIPEAATILLASLQKSPEDEEKNFDQTRFLEDSLLNW [human pro Neuropeptide Q (73-116) (SEQ ID NO: 17)] | – | > 10000 nM |
| NWTPQAMLYLKGAQA [NWTPQAMLYLKGAQA (SEQ ID NO: 32)] | 2 nM | – |
| NWTPQAMLYLKG [NWTPQAMLYLKG (SEQ ID NO: 19)] | 6.7 nM | – |
| NWTPQAMLYL [NWTPQAMLYL (SEQ ID NO: 21)] | 14 nM | – |
| NWTPQPMLYLKGAQG [NWTPQPMLYLKGAQG (SEQ ID NO: 36)] | 55 nM | – |
